Test results reported in patent US20130244255A1 (published 2013).

Legend:
[1] = molecular target: T1, GPNMB (CG56972) as expressed by human cell lines (human, UniProt Q14956 23-492); assay: FACS on RPMI-7951 cells
T1 construct: Endogenous or transfected full-length protein on cells (FACS, killing assays) or in cell lysates (immunoprecipitation, blot); also called native GPNMB protein
T1 sequence: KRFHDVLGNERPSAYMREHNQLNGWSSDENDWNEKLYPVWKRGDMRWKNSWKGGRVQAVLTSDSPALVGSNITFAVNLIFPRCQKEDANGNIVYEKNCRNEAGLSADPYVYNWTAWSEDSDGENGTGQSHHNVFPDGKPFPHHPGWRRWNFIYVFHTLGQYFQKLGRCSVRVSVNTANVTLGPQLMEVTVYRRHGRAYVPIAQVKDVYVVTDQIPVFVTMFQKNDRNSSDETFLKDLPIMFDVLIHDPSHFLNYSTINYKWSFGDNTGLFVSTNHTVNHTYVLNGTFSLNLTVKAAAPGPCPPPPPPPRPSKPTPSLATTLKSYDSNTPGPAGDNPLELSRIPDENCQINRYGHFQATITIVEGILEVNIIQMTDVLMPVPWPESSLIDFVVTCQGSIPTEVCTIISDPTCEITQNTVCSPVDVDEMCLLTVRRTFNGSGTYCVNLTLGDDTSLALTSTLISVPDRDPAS

[2] = molecular target: T1, GPNMB (CG56972) as expressed by human …; assay: FACS on EOL-1 cells, antibody 1 ug/mL
[3] = molecular target: T1, GPNMB (CG56972) as expressed by human …; assay: FACS on HL-60 cells, antibody 1 ug/mL
[4] = molecular target: T1, GPNMB (CG56972) as expressed by human …; assay: FACS on THP-1 cells, antibody 1 ug/mL
Experimental: (§1) Lymphoma or leukemia derived cells were washed twice with ice-cold FACS buffer and resuspended at 1 million cells per assay tube. […] Cells were then washed 2-3 times and resuspended in 1 mL of ice-cold FACS buffer. R-PE-conjugated goat anti-human antibody at 1:100 dilution was added and cells were incubated on ice for 30 min. Cells were washed 3 times with 1 mL of ice-cold FACS buffer, fixed with 0.5-1 mL of 1% formaldehyde in PBS and analyzed by Flow Cytometry.

[5] = molecular target: T1, GPNMB (CG56972) as expressed by human …; assay: FACS on HEMNLP cells
[6] = molecular target: T1, GPNMB (CG56972) as expressed by human …; assay: FACS on SW 1783 cells, CR011 10 ug/mL
Experimental: (§2) Quantitative analysis of CG56972 expression on the surface of cell lines was determined by flow cytometry (FACS). […] Cells were fixed in 1% paraformaldehyde/PBS and examined on a Becton Dickinson FACSCalibur flow cytometer. Data analysis was performed with Becton Dickinson Cell Quest software version 3.3 and the geometric mean fluorescence intensity ratio (GMR) was determined for each cell type.

[7] = molecular target: T1, GPNMB (CG56972) as expressed by human …; assay: FACS on SK-Mel 24 cells
[8] = molecular target: T1, GPNMB (CG56972) as expressed by human …; assay: FACS on HT144 cells
[9] = molecular target: T1, GPNMB (CG56972) as expressed by human …; assay: FACS on MOLT-4 cells, antibody 1 ug/mL
Experimental: as §1

[10] = molecular target: T1, GPNMB (CG56972) as expressed by human …; assay: FACS on SF-539 cells, CR011 10 ug/mL
Experimental: as §2
Geometric Mean ratios (GMR) were determined by flow cytometric analysis.

[11] = molecular target: T1, GPNMB (CG56972) as expressed by human …; assay: cell-based or functional assay
[12] = molecular target: T1, GPNMB (CG56972) as expressed by human …; assay: FACS on UACC-62 cells
[13] = molecular target: T1, GPNMB (CG56972) as expressed by human …; assay: FACS on M14 cells
[14] = molecular target: T1, GPNMB (CG56972) as expressed by human …; assay: FACS on PL-21 cells, antibody 1 ug/mL
Experimental: as §1

[15] = molecular target: T1, GPNMB (CG56972) as expressed by human …; assay: FACS on MEWO cells
[16] = molecular target: T1, GPNMB (CG56972) as expressed by human …; assay: FACS on WM-266-4 cells
[17] = molecular target: T1, GPNMB (CG56972) as expressed by human …; assay: FACS on SNB-78 cells, CR011 10 ug/mL
Experimental: as §2

[18] = molecular target: T1, GPNMB (CG56972) as expressed by human …; assay: FACS on U87MG cells, CR011 10 ug/mL
Experimental: as §2

[19] = molecular target: T1, GPNMB (CG56972) as expressed by human …; assay: FACS on AML-193 cells, antibody 1 ug/mL
[20] = molecular target: T1, GPNMB (CG56972) as expressed by human …; assay: FACS on SU-DHL-1 cells, antibody 1 ug/mL
Experimental: as §1

[21] = molecular target: T1, GPNMB (CG56972) as expressed by human …; assay: FACS on Karpas 299 cells, antibody 1 ug/mL
Experimental: as §1

[22] = molecular target: T1, GPNMB (CG56972) as expressed by human …; assay: FACS on SK-N-SH cells, CR011 10 ug/mL
Experimental: as §2

[23] = molecular target: T1, GPNMB (CG56972) as expressed by human …; assay: FACS on LOXIMVI cells
[24] = molecular target: T1, GPNMB (CG56972) as expressed by human …; assay: FACS on CCRF-CEM cells, antibody 1 ug/mL
Experimental: as §1

[25] = molecular target: T1, GPNMB (CG56972) as expressed by human …; assay: FACS on SR cells, antibody 1 ug/mL
Experimental: as §1

B1: CR011 mAb 1.15.1 (IgG2) (antibody)
heavy: QVQLQESGPGLVKPSQTLSLTCTVSGGSISSFNYYWSWIRHHPGKGLEWIGYIYYSGSTYSNPSLKSRVTISVDTSKNQFSLTLSSVTAADTAVYYCARGYNWNYFDYWGQGTLVTVSSASTKGPSVFPLAPCSRSTSESTAALGCLVKDYFPEPVTVSWNSGALTSGVHTFPAVLQSSGLYSLSSVVTVPSSNFGTQTYTCNVDHKPSNTKVDKTVERKCCVECPPCPAPPVAGPSVFLFPPKPKDTLMISRTPEVTCVVVDVSHEDPEVQFNWYVDGVEVHNAKTKPREEQFNSTFRVVSVLTVVHQDWLNGKEYKCKVSNKGLPAPIEKTISKTKGQPREPQVYTLPPSREEMTKNQVSLTCLVKGFYPSDIAVEWESNGQPENNYKTTPPMLDSDGSFFLYSKLTVDKSRWQQGNVFSCSVMHEALHNHYTQKSLSLSPGK
VL: not shown
notes: also called CR011.1.15.1; CR011 IgG2
- Geo Mean Ratio (relative to isotype) [1]: 6 ratio
- Geo Mean Ratio [2]: 1 ratio
- Geo Mean Ratio [3]: 2.3 ratio
- Geo Mean Ratio [4]: 6.1 ratio
- Geo Mean Ratio (relative to isotype) [5]: 10.2 ratio
- CR011 Fold Shift (GMR) [6]: 1.1 fold
- Geo Mean Ratio (relative to isotype) [7]: 1.9 ratio
- Geo Mean Ratio (relative to isotype) [8]: 7.4 ratio
- Geo Mean Ratio [9]: 6.2 ratio
- CR011 Fold Shift (GMR) [10]: 5.4 fold
- killing of UACC-62 cells with saporin-conjugated secondary antibody (colony count) [11]: > 70%
- Geo Mean Ratio (relative to isotype) [12]: 5.5 ratio
- Geo Mean Ratio (relative to isotype) [13]: 16.1 ratio
- Geo Mean Ratio [14]: 12 ratio
- Geo Mean Ratio (relative to isotype) [15]: 14.1 ratio
- Geo Mean Ratio (relative to isotype) [16]: 13.6 ratio
- CR011 Fold Shift (GMR) [17]: 8.6 fold
- CR011 Fold Shift (GMR) [18]: 1.5 fold
- Geo Mean Ratio [19]: 1.8 ratio
- Geo Mean Ratio [20]: 4.8 ratio
- Geo Mean Ratio [21]: 10.7 ratio
- CR011 Fold Shift (GMR) [22]: 2 fold
- Geo Mean Ratio (relative to isotype) [23]: 1 ratio
- Geo Mean Ratio [24]: 10.9 ratio
- Geo Mean Ratio [25]: 7.1 ratio
